# According to the RNAGym collection of RNA variant scans (doi:10.1073/pnas.2313332121):
# B1: TPR t1 (parent)
# chain: GACCAAUCUGCCCUCAGAGCUCGAGAACAUCUUCGGAUGCAGAGGAGGCAGGCUUCGGUGGCGCGAUAGCGCCAACGUCCUCAACCUCCAAUGCAUCCCACCACAUGAUGAUGCCUGAAGAGCCUUGGUUUUUUG
# Variants of: B1
# Experiment: polymerase ribozyme fitness, log enrichment relative to wild type (log ratio); higher = more active; in vitro selection for triplet polymerase activity
# Summary of the method: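 Both subunits of a heterodimeric triplet polymerase ribozyme were given their own mutant library, built by PCR and transcribed. Each library was annealed with a biotinylated primer, the partner subunit and triplets, incubated frozen at −7 °C, and its extended constructs gel-excised, captured on streptavidin beads and amplified by RT-PCR, all in one round done in triplicate. Fitness is the logarithm of genotype enrichment relative to wild-type enrichment, with replicates averaged by inverse-variance weighting. That logarithm is base 2, and Illumina-sequenced genotypes needed ≥10 input reads and ≥1 read per output.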
row,Variant,polymerase ribozyme fitness (log ratio)
1,G48C C73U,-0.559
2,U59G G61U A118U,-0.0772
3,C34A C56A G93A C97U,-4.7
4,C40U G113A,-1.41
5,G93C G113A C124G,-0.942
6,C20A A27U A95G U131A,-3.17
7,U14A G19C A83C C89A A111C C114G,-5.57
8,U38G A41U C62U,-3.01
9,C82A G122A,-0.963
10,C12U A46U A121C,-0.0492
11,G48U U59G C72U C94G,-1.86
12,C12U C79A,-0.645
13,C40A A118U G120U,-1.37
14,C13A U109A G110C G128U,-3.64
15,A43U C76A,-2.98
16,C40U A41C C56A C73U C114A,-3.67
17,C8U U21A G69C U106C U112A,-0.365
18,C8U C20A C53U U54A C89G,-4.08
19,C56A A68G G120C,-4.19
20,C13U A37C C40A C73A G93A G117U,-3.4
21,U7G G39A G58A G69U C97U,0.0234

row,Variant,polymerase ribozyme fitness (log ratio)
1,C15G G48U A50G G63C U106A U109C,-6.17
2,C12G G45C U55C C72U C85A U96A,-4.29
3,G10U C13U C70A,-0.716
4,C13G G42A C85U C124G,-1.82
5,C15A U92A U132A,-4.82
6,C53U G69U C88G G110C C115A A121C C124G,-2.79
7,A74U C104A,-1.82
8,A18C C20U C53U,-1.72
9,C13A G44A C89U C102G,-6.88
10,U59C G120A,0.486
11,U7A C11A U14G G45U C53U C70A G113A G120U U133A,-4.43
12,A84C U87A U96A,-1.65
13,G110A C123U,-0.322
14,U9G A95C,-1.41
15,C11A C88A,-2.15
16,C11U C15G U112A,-2.98
17,A37C G65C A121U,-5.06
18,G10A G23A,-4.78
19,U38G G47U,-3.26
20,A2G G57C U59G A100U U106C,-0.973
21,C49G C101A C124U,0.417

row,Variant,polymerase ribozyme fitness (log ratio)
1,C8A C56A C102A A103U,-3.2
2,A5U C11U U54A C89A,-2.83
3,C40A U87G,-1.04
4,U9G G19U G45U C114A,1.58
5,G42U U87C G128U U133A,-3.75
6,G39C G48U C62U,-1.74
7,G60A C73A,-0.416
8,C31U U81C G120U,-6.22
9,A105U A111U,-5.69
10,G61U A91U,-1.05
11,G71A C85U G128U U131A,-3.17
12,G42C G60C G120U,-2.03
13,A16U C70A,-3.19
14,U38A G60A A121C G135U,-1.36
15,A6C C76A C79U,-0.8
16,A24G U87A,-1.94
17,A6C G47A,0.295
18,C49U C62A U96C,-1.91
19,C3G G10C C34G G42U G69U C82G C102A U109A,-5.83
20,U7G G52A C104A C114G U133G,-3.61
21,U32A C72G,-3.95

row,Variant,polymerase ribozyme fitness (log ratio)
1,C11U U55A C80A C86G C124G,-4.52
2,C72A A75C,-0.344
3,G44A C70U A103U G117U,-5.43
4,C20G G93A,-5.03
5,G48U A84C C115A,-1.64
6,U21A U92C U116C A119G,0.265
7,G39A G47U,-2.07
8,A43C G69A U112C G135A,-4.59
9,G47A G93U,-2.71
10,A83C C86G,-1.46
11,A41U G60A C80U,-3.75
12,A24G C40G G52U,-4.31
13,C40A G52A C73U C104U U126A,-3.9
14,C12A C86A,-0.926
15,A6C C12A C53U U78C,-1.07
16,C8U G57U U78A C104A,-1.43
17,U21G C88G U96A C102U,-5.77
18,C88G C124G,1.77
19,A90U A100U,-2.77
20,C72G G135U,-0.702
